In IntAct's records for PubMed 23503662:

B1: F-box/LRR-repeat protein 3 (Homo sapiens), Q9UKT7 (parent)
chain: MKRGGRDSDRNSSEEGTAEKSKKLRTTNEHSQTCDWGNLLQDIILQVFKYLPLLDRAHASQVCRNWNQVFHMPDLWRCFEFELNQPATSYLKATHPELIKQIIKRHSNHLQYVSFKVDSSKESAEAACDILSQLVNCSLKTLGLISTARPSFMDLPKSHFISALTVVFVNSKSLSSLKIDDTPVDDPSLKVLVANNSDTLKLLKMSSCPHVSPAGILCVADQCHGLRELALNYHLLSDELLLALSSEKHVRLEHLRIDVVSENPGQTHFHTIQKSSWDAFIRHSPKVNLVMYFFLYEEEFDPFFRYEIPATHLYFGRSVSKDVLGRVGMTCPRLVELVVCANGLRPLDEELIRIAERCKNLSAIGLGECEVSCSAFVEFVKMCGGRLSQLSIMEEVLIPDQKYSLEQIHWEVSKHLGRVWFPDMMPTW
partner: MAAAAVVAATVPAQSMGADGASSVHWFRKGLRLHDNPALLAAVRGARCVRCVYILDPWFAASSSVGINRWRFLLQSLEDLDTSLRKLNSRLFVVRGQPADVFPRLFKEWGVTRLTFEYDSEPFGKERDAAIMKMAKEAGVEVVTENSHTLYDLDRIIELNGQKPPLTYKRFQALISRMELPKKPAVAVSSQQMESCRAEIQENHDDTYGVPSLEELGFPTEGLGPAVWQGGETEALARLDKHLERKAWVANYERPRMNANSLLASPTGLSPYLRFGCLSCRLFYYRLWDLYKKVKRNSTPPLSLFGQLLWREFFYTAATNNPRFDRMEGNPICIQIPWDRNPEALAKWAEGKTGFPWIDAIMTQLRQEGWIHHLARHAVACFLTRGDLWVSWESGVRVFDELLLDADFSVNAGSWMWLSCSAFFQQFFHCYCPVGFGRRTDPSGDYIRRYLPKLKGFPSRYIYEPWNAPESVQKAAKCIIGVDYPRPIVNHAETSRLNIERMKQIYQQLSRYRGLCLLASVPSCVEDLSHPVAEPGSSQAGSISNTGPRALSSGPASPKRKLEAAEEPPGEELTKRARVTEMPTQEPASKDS
B2: Cryptochrome-2 (Mus musculus), Q9R194 (parent)
chain: B1 partner

Variants of: B1
Conditions: with cry2_mouse Cry2, Q9R194

Variant | effect of a mutation on the interaction
W428A | decreasing interaction strength
P426A | disrupting interaction strength
Y292A | decreasing interaction strength
Y314A | disrupting interaction strength
E336A | disrupting interaction strength

Variants of: B2
Conditions: with per1_human PER1, O15534
Sequence of per1_human PER1, O15534 (O15534 whole entry): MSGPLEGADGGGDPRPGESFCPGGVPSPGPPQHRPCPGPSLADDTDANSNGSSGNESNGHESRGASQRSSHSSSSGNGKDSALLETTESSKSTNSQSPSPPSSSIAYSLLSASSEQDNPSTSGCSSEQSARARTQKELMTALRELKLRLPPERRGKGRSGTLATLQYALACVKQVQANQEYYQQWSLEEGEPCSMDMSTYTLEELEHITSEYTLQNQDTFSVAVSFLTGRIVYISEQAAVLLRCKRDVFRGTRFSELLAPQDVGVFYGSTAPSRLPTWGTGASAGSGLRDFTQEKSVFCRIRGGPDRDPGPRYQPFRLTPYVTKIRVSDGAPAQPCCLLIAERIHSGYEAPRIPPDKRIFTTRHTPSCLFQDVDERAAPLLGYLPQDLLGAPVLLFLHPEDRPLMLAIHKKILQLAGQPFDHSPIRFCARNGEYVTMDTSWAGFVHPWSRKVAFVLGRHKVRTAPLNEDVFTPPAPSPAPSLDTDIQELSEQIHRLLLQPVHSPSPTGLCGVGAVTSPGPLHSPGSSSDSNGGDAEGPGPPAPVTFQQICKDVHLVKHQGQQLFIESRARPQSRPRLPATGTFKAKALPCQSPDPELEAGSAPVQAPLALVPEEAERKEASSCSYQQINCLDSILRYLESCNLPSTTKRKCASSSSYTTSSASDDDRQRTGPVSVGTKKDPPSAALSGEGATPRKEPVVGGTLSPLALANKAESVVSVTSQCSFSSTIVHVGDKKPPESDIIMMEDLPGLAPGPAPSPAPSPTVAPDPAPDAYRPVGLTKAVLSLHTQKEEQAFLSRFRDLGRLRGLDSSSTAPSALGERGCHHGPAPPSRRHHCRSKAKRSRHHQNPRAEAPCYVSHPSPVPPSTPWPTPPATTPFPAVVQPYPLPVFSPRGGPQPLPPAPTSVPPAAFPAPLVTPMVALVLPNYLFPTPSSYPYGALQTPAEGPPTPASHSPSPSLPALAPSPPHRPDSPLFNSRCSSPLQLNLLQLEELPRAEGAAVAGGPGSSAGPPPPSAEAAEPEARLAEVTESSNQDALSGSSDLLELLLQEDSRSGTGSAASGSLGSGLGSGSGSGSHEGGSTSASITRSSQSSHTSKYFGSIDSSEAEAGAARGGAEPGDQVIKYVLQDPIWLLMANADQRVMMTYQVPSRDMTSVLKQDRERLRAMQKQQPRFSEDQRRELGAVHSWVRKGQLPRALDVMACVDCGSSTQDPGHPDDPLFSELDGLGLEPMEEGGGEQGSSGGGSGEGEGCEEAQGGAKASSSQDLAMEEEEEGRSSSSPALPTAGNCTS

Variant | effect of a mutation on the interaction
D339R | disrupting interaction strength
